From patent US20220306736A1 (Y BIOLOGICS, published 2022) come the findings set out here.

Changes are numbered by the printed parent chain.

B1: SA2386 (antibody, V domains shown)
VH: QVQLVESGGGLVKPGGSLRLSCAASGSTFRVAWVNWVRQAPGKGLEWVGRIKSNSDGGTTDYATPMKDRFIISRDDSKNTVFLQMNSLRAEDTAVYYCARHGDANAYYYGMDVWGQGTKVTVSS
VL: QSALTQPASVSGSPGQSITISCTGTSSDVGGYNYISWYQQHPGKAPRLLIYDVSDRPSGVSNRFSGSKSANTASLTISGLQAEDEADYYCSSYASSSTLYVFGTGTKVTVL
B2: SA1956 (antibody, V domains shown)
VH: QVTLKESGPTLVKPTQTLTLTCTFSGFSLTTSGVAVAWIRQPPGKALEWLALIYWDGDERYSSSLKNRLTITKDTSKSQVVLTMTNMDPVDTATYYCARIRGYYDWGSYYSYGMDVWGQGTTVTVSS
VL: SYELTQPLSVSVALGQTARITCGGNNIGSKNVHWYQQKPGQAPVLVIYRDSNRPSGIPERFSGSNSGNTATLTISRAQAGDEADYYCQVWDSSTHVVFGGGTKLTVL
B3: SA1957 (antibody, V domains shown)
VH: QVTLRESGPTLVKPTQTLTLTCTFSGFSFNTPGEGVTWIRQPPGKALEWLALIYWDDEKHYNPSLNGRLTITKDTSKSQVVLTMTNMDPVDTATYYCARIRGYYDWGSYYSYGMDVWGQGTTITVSS
VL: B2 VL with N68D, R76G
B4: SA2285 (antibody, V domains shown)
VH: QVTLRESGPTLVKPTQTLTLTCTFRGFSLNTPGMGVAWIRQPPGKALEWLGLVFWDDDKTYRPSLRNRLTITKETSKSQVVLTMTNMDPVDTATYYCARIRGYYDWGSYYSYGMDVWGQGTTVTVSS
VL: SYELTQPLSVSVALGQTARITCGGNNIGSKNVHWYQQKPGQAPVLVIYRDSNRPSGIPERFSGSNSGNTATLTISGVEAGDEADYYCQVWDSNSDQYVFGTGSKVTVL
B5: SA2287 (antibody, V domains shown)
VH: QVQLVESGGGVVQPGRSLRLSCAASGFTFSSRGMHWVRQAPGKGLEWVALIWYHGSDDSYADSVKGRFTISRDNSKNMVYLQMNSLRAEDTAVYYCANLGATDGFDIWGQGTVVTVSS
VL: QSALTQPASVSGSPGQSITISCTGTSSDVSAYNYVSWYQQHPGKAPKLMIYGVSDRPSGVSFRFSGSKSGNTASLTISGLQAEDEAYYYCNSYTTSNTWVFGGGTKLTVL
B6: SA1975 (antibody, V domains shown)
VH: QVQLVESGAEIKKPGASMNVSCKASGYIFTNYYIHWVRQAPGQGLEWIGIIDPSGGSTTYAQKFQHRVTMTSDTSTSTVYMELIGLGSEDTAVYYCARDYWGSLDYWGQGTLVTVSS
VL: NFMLTQPHSVSESPGKTVTISCTRSSGSIASNYVQWYQQRPGSAPTIVIYENYLRPSEVPDRFSGSIDSSSNSASLTISGLKTEDEGDYYCQSYDSRNRNYVFGTGTKVTVL
B7: SA2290 (antibody, V domains shown)
VH: QMQLVESGAEVKKPGASVKVSCKASGYTFTSYGISWVRQAPGQGLEWMGWISAYNGNTNYAQKLQGRVTMTTDTSTSTAYMELRSLRSEDTAVYYCARDYWGSLDHWGQGALVTVSS
VL: B6 VL with E12G, A30D, S31I, V48I, N52D, Y53S, L54Q, P56T, E58G, S69R
B8: SA2455 (antibody, V domains shown)
VH: QMQLVESGGGLVKPGGSLRLSCAASGFTFSDYYMSWIRQAPGKGLEWVSYISSSGSTIYYADSVKGRFTISRDNAKNSLYLQMNSLRAEDTAVYYCARPGYYYGLDVWGQGTTVTVSS
VL: DIQMTQSPSTLSASVGDRVTITCRASQSISSWLAWYQQKPGIAPKLLIYQASILDSGVPSRFSGSGSGTEFTLTISSLQPDDFATYYCQQYSSLWTFGPGTKVDIK
B9: SA2283 (antibody, V domains shown)
VH: QVQLVESGGGLVKPGGSLRLSCAASGFTFSDYYMSWIRQAPGKGLEWVSYISSSGSTIYYADSVKGRFTISRDNAKNSLYLQMNSLRAEDTAVYYCARRYSAYETGYFDFWGQGTLVTVSS
VL: DIQMTQSPSSLSASVGDRVTITCRASQGISTYLNWYQQKPGKAPKLLIYSTSTLQTGVPSRFSGGGSGTDFTLTISSLQPEDFATYYCQQSYSAPPTFGPGTKVEIK
B10: SA2390 (antibody, V domains shown)
VH: QVQLVESGGGLVQPGRSLRLSCAASGFTFDDYAMHWVRQAPGKGLEWISGISWNSGNIVYADSVKGRFTISRDNAKNSLYLQMNSLRAEDTAVYYCARETALAFDMWGPGTMVTVSS
VL: DIQMTQSPSSVSASVGDRVTITCRASQGISYWLAWYQQKPGIAPKLLIFASSRLHSGVPSRFNGSGSGTDFTLTINSLQPEDFATYYCLQATSFPYTFGQGTKLEIK
B11: SA2291 (antibody, V domains shown)
VH: QMQLVESGGGLVKPGGSLRLSCAASGFTFSDHYMSWIRQAPGKGLEWVSSISSGGGTIYYADSVKGRFTISRDNAKNSLYLQMNSLRAEDTAVYYCARREYDSDGHYYFDYWGQGILVTVSS
VL: SYELTQPPSVLVSPGQTARITCSGDALPKQYAYWYQQKPGQAPVLVMYKDNVRPSGIPERFSGSSSGTTVTLTISRVQAEDEADYYCQSVDSSDTSVVFGGGTKLTVL

The assay concerns the target T1, hVSIG4(S)-hFc (human).
T1 construct: also called VGIG4(S)-Fc; hVSIG4 short-hFc (S)
Kind of assay: western blot, 100 ng hVSIG4 short-hFc (FIG. 11B). For orientation: In western blotting, separated proteins are transferred to a membrane and probed.
Experimental: (A) Binding to hVSIG4(S) and hVSIG4(L) was assayed by ELISA with the original scFv versions of the 11 human anti-VSIG4 antibodies. (B) Binding to hVSIG4(S) and hVSIG4(L) was assayed by western blotting with the 11 full-length human anti-VSIG4 antibodies. NRH: Non-reduced, heated; RH: Reduced, heated.
In each case, 100 ng of hVSIG4 long-hFc (L) and hVSIG4 short-hFc (S) were probed with the specific anti-VSIG4 antibody.
For the molecule B1, the binding result was “binds”.
With B2 the entry was “binds”; with B3, “binds”; with B4, “binds”.
With B5 the entry was “binds”.
With B6 the entry was “binds”.
Take B7: the binding result is reported as “binds”.
Consider B8, for which the binding result is “binds”.
On to B9, for which the binding result is “binds”.
With B10 the entry was “binds”; with B11, “binds”.
